Experimental data taken from the supplement of paper PMC7877785.
± gives the uncertainty stated by the source.

Test: self-splicing fitness, log relative to wild type (ln ratio); higher = more splicing; Tetrahymena group I intron in knt gene, E. coli kanamycin selection, DiMSum; sequences stand for … in CUCUCU…GGAGGGAAAAGUUAUCAGGCAUGCACCUGGUAGCUAGUCUUUAAACCAAUAGAUUGCAUCGGUUUAAAAGGCAAGACCGUCAAAUUGCGGGAAAGGGGUCAACAGCCGUUCAGUACCAAGUCUCAGGGGAAACUUUGAGAUGGCCUUGCAAAGGGUAUGGUAAUAAGCUGACGGACAUGGUCCUAACCACGCAGCCAAGUCCUAAGUCAACAGAUCUUCUGUUGAUAUGGAUGCAGUUCACAGACUAAAUGUCGGUCGGGGAAGAUGUAUUCUUCUCAUAAGAUAUAGUCGGACCUCUCCUUAAUGGGAGCUAGCGGAUGAAGUGAUGCAACACUGGAGCCGCUGGGAACUAAUUUGUAUGCGAAAGUAUAUUGAUUAGUUUUGGAGUACUCGUGGUCG
How it was run: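 Six replicate transformations of E. coli BL21(DE3) with a pET-22b(+) library were grown overnight at 37°C or 30°C. The library randomised all eight P1ex-region intron nucleotides, the intron lying in the knt kanamycin-resistance gene, and plates were LB agar with or without 25 μg/mL kanamycin plus 100 μg/mL carbenicillin, 50 μM IPTG and 0.2% rhamnose. Pooled colonies were amplicon-sequenced on an Illumina HiSeq 2500, and fitness is the DiMSum error-weighted combination of wild-type-normalised replicate fold changes, kanamycin versus none.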

Sequence	self-splicing fitness (ln) (30 °C)	self-splicing fitness (ln) (37 °C)
UCUCAGCAAUAUUACGGGUA	-0.605 ± 0.11	-0.0376 ± 0.11
UCUCAGCAAUAUUACGAAUG	-1.73 ± 0.15	-1.85 ± 0.26
UGCAAGCAAUAUUACGCAGC	-3.6 ± 0.23	-2.58 ± 0.23
CACGAGCAAUAUUACGUUUG	-3.57 ± 0.13	-2.17 ± 0.13
CCGCAGCAAUAUUACGUUGU	-3.23 ± 0.16	-3.8 ± 0.26
UUCUAGCAAUAUUACGUUUU	-3.83 ± 0.23	-2.92 ± 0.18
UGAGAGCAAUAUUACGGCGU	-4.04 ± 0.35	-2.81 ± 0.34
GACGAGCAAUAUUACGUGCU	-2.92 ± 0.19	-2.4 ± 0.23
GGCCAGCAAUAUUACGUGAC	-2.05 ± 0.09	-1.16 ± 0.11
AUUGAGCAAUAUUACGACGC	-2.27 ± 0.22	-2.35 ± 0.28
CAGCAGCAAUAUUACGCAGC	-4.33 ± 0.32	-2.3 ± 0.28
GGUCAGCAAUAUUACGAUCA	-0.0175 ± 0.14	0.178 ± 0.13
AUCCAGCAAUAUUACGGUAC	-1.77 ± 0.12	-0.693 ± 0.14
AUUGAGCAAUAUUACGUAUU	-4.59 ± 0.38	-1.25 ± 0.16
UCGUAGCAAUAUUACGGAUC	-3.32 ± 0.45	-2.85 ± 0.48
GUGUAGCAAUAUUACGAACA	-1.66 ± 0.16	-0.829 ± 0.12
CGUGAGCAAUAUUACGGGUA		-2.39 ± 0.38
ACAUAGCAAUAUUACGCACA	-0.98 ± 0.099	-0.0165 ± 0.12
ACUUAGCAAUAUUACGCGCU	-0.535 ± 0.094	-0.305 ± 0.097
AGGUAGCAAUAUUACGAAGC	-3.821 ± 0.036	-2.3 ± 0.042
UUCUAGCAAUAUUACGGUCA	-0.883 ± 0.15	-0.729 ± 0.11
AGUGAGCAAUAUUACGCGCA	-2.29 ± 0.2	-2.38 ± 0.2
ACCAAGCAAUAUUACGUGCU	-1.7 ± 0.096	-0.864 ± 0.096
GAGUAGCAAUAUUACGGACC	-1.29 ± 0.21	-0.248 ± 0.22
GCCGAGCAAUAUUACGCCCG	-2.68 ± 0.26	

Sequence	self-splicing fitness (ln) (30 °C)	self-splicing fitness (ln) (37 °C)
CUCGAGCAAUAUUACGGACG	-2.4 ± 0.15	-2.25 ± 0.23
UACUAGCAAUAUUACGCGUC	-2.73 ± 0.14	-1.81 ± 0.14
AGCGAGCAAUAUUACGAUUC	-1.93 ± 0.16	-2.02 ± 0.27
GUAUAGCAAUAUUACGGUGU	-3.29 ± 0.15	-1.38 ± 0.11
UAGAAGCAAUAUUACGAGUC	-2.76 ± 0.39	-2.02 ± 0.33
CAUGAGCAAUAUUACGCGGU	-4.59 ± 0.33	-2.33 ± 0.21
AGGUAGCAAUAUUACGGGUA	-2.347 ± 0.022	-1.31 ± 0.034
UAAGAGCAAUAUUACGGCUA	-1.03 ± 0.1	-0.141 ± 0.11
GUACAGCAAUAUUACGGGGU	-3.29 ± 0.16	-2.34 ± 0.11
AAGAAGCAAUAUUACGAAGA	-3.29 ± 0.19	-2.15 ± 0.19
GAAUAGCAAUAUUACGUCAG	-3.69 ± 0.31	-3.11 ± 0.4
CUUGAGCAAUAUUACGUGAA	-3.07 ± 0.2	-2.36 ± 0.3
AGAGAGCAAUAUUACGGACG	-2.64 ± 0.3	-1.61 ± 0.44
CCGAAGCAAUAUUACGAAAC	-3.12 ± 0.31	-2.46 ± 0.37
CACCAGCAAUAUUACGUGUU	-4.11 ± 0.14	-2.67 ± 0.1
GCGCAGCAAUAUUACGAAUA	-2.09 ± 0.2	-1.02 ± 0.14
GGAAAGCAAUAUUACGUCCG	-0.651 ± 0.23	-0.324 ± 0.21
ACAGAGCAAUAUUACGGUAA	-3.43 ± 0.25	-2.26 ± 0.23
CGGUAGCAAUAUUACGAUAU	-3.58 ± 0.31	-1.33 ± 0.24
GGAGAGCAAUAUUACGUGCA	-1.92 ± 0.29	-2.03 ± 0.32
GUCGAGCAAUAUUACGGUCU	-3.35 ± 0.28	-1.12 ± 0.18
CAGCAGCAAUAUUACGGCAA	-1.35 ± 0.1	-1.45 ± 0.097
GGGCAGCAAUAUUACGGUAU	-1.06 ± 0.081	-0.373 ± 0.13
CACAAGCAAUAUUACGGGUC	-3.43 ± 0.1	-2.2 ± 0.12
UUUGAGCAAUAUUACGGUGU		-2.7 ± 0.41

Sequence	self-splicing fitness (ln) (30 °C)	self-splicing fitness (ln) (37 °C)
ACCUAGCAAUAUUACGUUGU	-1.79 ± 0.066	-1.12 ± 0.082
ACUCAGCAAUAUUACGCCUC	-0.758 ± 0.095	-1.13 ± 0.13
CCUGAGCAAUAUUACGCGGG	-3.41 ± 0.26	-2.22 ± 0.34
UAGCAGCAAUAUUACGUCAA	-1.79 ± 0.12	-1.21 ± 0.11
CGAUAGCAAUAUUACGUAAC	-2.84 ± 0.17	-3.84 ± 0.46
GGUUAGCAAUAUUACGGAUU	0.0654 ± 0.078	-0.0766 ± 0.092
GGACAGCAAUAUUACGGUGC	-1.58 ± 0.094	-0.8 ± 0.11
GGUUAGCAAUAUUACGUCGG	-2.3 ± 0.36	-1.7 ± 0.35
CGUAAGCAAUAUUACGCCGA	-3.5 ± 0.25	-1.44 ± 0.14
CGUGAGCAAUAUUACGUCGA	-1.75 ± 0.29	-3.3 ± 0.3
AGGAAGCAAUAUUACGUUCG	-0.643 ± 0.071	-0.266 ± 0.11
GGUGAGCAAUAUUACGUAUG	-3.26 ± 0.47	-0.0178 ± 0.18
GAUAAGCAAUAUUACGAAUA	-2.53 ± 0.22	-1.58 ± 0.3
GUCCAGCAAUAUUACGGAAG	-0.697 ± 0.079	0.124 ± 0.084
GUAGAGCAAUAUUACGUUCU	-2.74 ± 0.12	-0.917 ± 0.099
CAAAAGCAAUAUUACGUGAA	-2.73 ± 0.085	-1.63 ± 0.099
GCCCAGCAAUAUUACGAUUC	-1.56 ± 0.074	-0.274 ± 0.09
UAUAAGCAAUAUUACGGACU	-2.12 ± 0.11	-0.796 ± 0.11
AACAAGCAAUAUUACGGUCU	-0.114 ± 0.037	0.456 ± 0.054
UCUAAGCAAUAUUACGACUG	-0.955 ± 0.17	-0.205 ± 0.23
AACGAGCAAUAUUACGUGAG	-3.58 ± 0.17	-0.98 ± 0.13
UGAAAGCAAUAUUACGAUUC	-2.53 ± 0.18	-2 ± 0.22
GGCCAGCAAUAUUACGCAGC	-3.08 ± 0.37	-1.88 ± 0.33
GAGUAGCAAUAUUACGAACA		-1.28 ± 0.34
GUAGAGCAAUAUUACGAACA	-2.46 ± 0.17	-0.783 ± 0.16

Sequence	self-splicing fitness (ln) (30 °C)	self-splicing fitness (ln) (37 °C)
UCCAAGCAAUAUUACGAGAA	-0.789 ± 0.16	-0.569 ± 0.17
UUCAAGCAAUAUUACGCGCA	-0.732 ± 0.13	0.264 ± 0.17
CUUAAGCAAUAUUACGUAAG	-2.83 ± 0.1	-1.27 ± 0.098
GGGUAGCAAUAUUACGACGA	-0.202 ± 0.15	-0.379 ± 0.14
AUAAAGCAAUAUUACGUGGA	-3.9 ± 0.17	-1.38 ± 0.1
CCAUAGCAAUAUUACGCUAC	-4.24 ± 0.28	-3.23 ± 0.32
GACUAGCAAUAUUACGGCUC	0.193 ± 0.1	0.351 ± 0.12
AGUGAGCAAUAUUACGUGCC	-2.42 ± 0.49	-1.3 ± 0.38
AUAGAGCAAUAUUACGGCUU	-0.934 ± 0.12	-1.34 ± 0.14
UGCUAGCAAUAUUACGAGUG	-1.98 ± 0.12	-1.08 ± 0.11
CCCUAGCAAUAUUACGCGUC	-3.35 ± 0.14	-3.21 ± 0.23
CCUAAGCAAUAUUACGCGAC	-2.41 ± 0.3	-3.61 ± 0.39
AUUCAGCAAUAUUACGACAG	-2.39 ± 0.16	-0.849 ± 0.17
CUCAAGCAAUAUUACGUAAG	-0.417 ± 0.054	-0.102 ± 0.086
AUUCAGCAAUAUUACGCUCA	-0.0142 ± 0.092	-0.0382 ± 0.14
GUACAGCAAUAUUACGGACC	-2.76 ± 0.13	-2.1 ± 0.2
AAAGAGCAAUAUUACGUUAC	-2.94 ± 0.31	
AAGCAGCAAUAUUACGGAUC	-1.81 ± 0.093	-1 ± 0.1
GUGCAGCAAUAUUACGCGCA	-2.62 ± 0.27	
ACCCAGCAAUAUUACGCUCC	-0.481 ± 0.099	-0.338 ± 0.14
UGUGAGCAAUAUUACGAUUA	-1.17 ± 0.22	-1.53 ± 0.2
UGUUAGCAAUAUUACGAGAU		-2.58 ± 0.44
